Results published in patent US20260226194A1 (GlaxoSmithKline, published 2026).
Blank lines part the entries; values can stand above or below the binder they belong to.

How the values were obtained:
[1] = target: T1, recombinant human PAPPA (pregnancy associated plasma protein-A) (human, UniProt Q13219 82-1627); assay: cell-based or functional assay
[2] = target: T2, endogenous human PAPPA natively secreted by human cells (A549; 9-7) (human, UniProt Q13219 82-1627); assay: cell-based or functional assay
recombinant mouse PAPPA [3] = target: T3, recombinant mouse PAPPA (mouse, UniProt Q8R4K8 82-1624, limits assumed); assay: cell-based or functional assay
[4] = target: T2, endogenous human PAPPA natively …; assay: cell-based or functional assay; remark: listed apart in the source
[5] = target: T1, recombinant human PAPPA (pregnancy …); assay: cell-based or functional assay; remark: listed apart in the source
[6] = target: T4, recombinant cynomolgus monkey PAPPA (cynomolgus monkey, UniProt A0A2K5WE98 87-1619); assay: cell-based or functional assay
[7] = target: T1, recombinant human PAPPA (pregnancy …); assay: cell-based or functional assay; remark: listed apart in the source
[8] = target: T1, recombinant human PAPPA (pregnancy …); assay: SPR, Biacore 8K+, mAb captured on PrismA chip, PAPPA as analyte, 37 C, mean of n=3
Experimental: (§1) Binding of TPP12744 to recombinant human, cynomolgus monkey and rabbit PAPPA was assessed using capture kinetics method on BIACORE 8K+ (Cytiva) SPR instrument. The antibodies, including controls, were captured on PrismA biosensor surface (Cytiva) at injection rate of 10 μl/min. Analytes were injected at injection rate of 30 μl/min over the captured antibodies as a concentration series including eight 2× serial dilutions with the highest concentration of 32 nM. Association phase was 160 seconds, followed by a dissociation phase of 600 seconds. Buffer only (OnM analyte) injection was used to double reference the binding curves. Regeneration of the chip surface between cycles was carried out using 10 mM Glycine pH 1.5. The assay was run at 37° C. in HBS-EP+ buffer with 0.1% BSA to minimize the nonspecific binding of the analytes to the chip surface. TPP12744 was analyzed as three independently prepared replicates.
(§2) The final screening process was conducted using the following criteria. Firstly, antibodies were checked for affinity to human PAPPA (method #4). Only antibodies with low nanomolar affinity for human PAPPA were retained. For one antibody (TPP12744) binding to PAPPA was assessed at 37° C. using the methodology described in Example 1, method #6.

[9] = target: human PAPPA (Common variant) (human); assay: as above
Experimental: as §1, §2

[10] = target: T4, recombinant cynomolgus monkey PAPPA; assay: as above
Experimental: as §1, §2

[11] = target: T2, endogenous human PAPPA natively …; assay: cell-based or functional assay; remark: listed apart in the source
[12] = target: T1, recombinant human PAPPA (pregnancy …); assay: cell-based or functional assay; remark: listed apart in the source
recombinant mouse PAPPA [13] = target: T3, recombinant mouse PAPPA; assay: SPR (Biacore 8K+, captured mAb, 37 C); data not shown
rat PAPPA = rat PAPPA (rat, UniProt A0ABK0LMY4 80-1624); assay: as above

T2 sequence (Q13219 82-1627 limits assumed): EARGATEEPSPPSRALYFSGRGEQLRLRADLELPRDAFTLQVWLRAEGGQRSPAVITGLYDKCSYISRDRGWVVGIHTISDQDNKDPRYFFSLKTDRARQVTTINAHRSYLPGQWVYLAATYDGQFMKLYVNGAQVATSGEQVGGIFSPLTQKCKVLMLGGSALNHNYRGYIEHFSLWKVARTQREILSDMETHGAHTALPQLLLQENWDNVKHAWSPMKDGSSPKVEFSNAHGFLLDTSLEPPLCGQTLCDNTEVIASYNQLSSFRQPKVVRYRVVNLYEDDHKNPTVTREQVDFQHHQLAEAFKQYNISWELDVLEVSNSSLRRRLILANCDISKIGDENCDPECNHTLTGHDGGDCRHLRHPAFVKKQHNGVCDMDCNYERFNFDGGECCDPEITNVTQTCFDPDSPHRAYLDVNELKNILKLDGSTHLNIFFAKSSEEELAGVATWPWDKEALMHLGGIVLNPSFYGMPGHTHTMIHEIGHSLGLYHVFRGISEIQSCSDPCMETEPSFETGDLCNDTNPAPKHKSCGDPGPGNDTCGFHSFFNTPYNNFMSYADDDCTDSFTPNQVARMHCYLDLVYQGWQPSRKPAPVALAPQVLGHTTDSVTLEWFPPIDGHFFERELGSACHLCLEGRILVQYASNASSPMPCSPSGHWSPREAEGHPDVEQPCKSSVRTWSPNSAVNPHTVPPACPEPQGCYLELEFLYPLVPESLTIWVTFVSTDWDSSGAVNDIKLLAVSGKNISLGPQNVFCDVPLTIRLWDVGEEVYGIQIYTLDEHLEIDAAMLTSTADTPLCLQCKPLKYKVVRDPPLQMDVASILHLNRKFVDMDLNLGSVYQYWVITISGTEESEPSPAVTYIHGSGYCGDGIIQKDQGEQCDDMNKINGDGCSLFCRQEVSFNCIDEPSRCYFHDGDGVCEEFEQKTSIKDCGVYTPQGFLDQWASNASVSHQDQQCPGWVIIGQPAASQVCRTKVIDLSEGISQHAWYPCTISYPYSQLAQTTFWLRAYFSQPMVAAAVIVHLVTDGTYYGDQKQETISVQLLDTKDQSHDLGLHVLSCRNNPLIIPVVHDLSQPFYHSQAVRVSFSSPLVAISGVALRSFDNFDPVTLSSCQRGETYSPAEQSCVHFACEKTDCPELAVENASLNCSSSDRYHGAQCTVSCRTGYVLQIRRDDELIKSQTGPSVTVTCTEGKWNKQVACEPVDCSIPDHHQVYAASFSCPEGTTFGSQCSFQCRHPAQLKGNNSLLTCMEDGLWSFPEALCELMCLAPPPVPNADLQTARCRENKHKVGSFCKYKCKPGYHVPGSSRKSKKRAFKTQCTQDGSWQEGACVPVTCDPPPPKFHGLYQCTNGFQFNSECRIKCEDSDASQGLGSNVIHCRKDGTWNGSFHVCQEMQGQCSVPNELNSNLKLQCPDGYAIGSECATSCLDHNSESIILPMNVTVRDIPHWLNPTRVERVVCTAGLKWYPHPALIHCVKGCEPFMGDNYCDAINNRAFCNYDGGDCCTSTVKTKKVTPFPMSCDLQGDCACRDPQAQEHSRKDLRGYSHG
T1 sequence (Q13219 82-1627 limits assumed): as above
T3 sequence (Q8R4K8 82-1624 limits assumed): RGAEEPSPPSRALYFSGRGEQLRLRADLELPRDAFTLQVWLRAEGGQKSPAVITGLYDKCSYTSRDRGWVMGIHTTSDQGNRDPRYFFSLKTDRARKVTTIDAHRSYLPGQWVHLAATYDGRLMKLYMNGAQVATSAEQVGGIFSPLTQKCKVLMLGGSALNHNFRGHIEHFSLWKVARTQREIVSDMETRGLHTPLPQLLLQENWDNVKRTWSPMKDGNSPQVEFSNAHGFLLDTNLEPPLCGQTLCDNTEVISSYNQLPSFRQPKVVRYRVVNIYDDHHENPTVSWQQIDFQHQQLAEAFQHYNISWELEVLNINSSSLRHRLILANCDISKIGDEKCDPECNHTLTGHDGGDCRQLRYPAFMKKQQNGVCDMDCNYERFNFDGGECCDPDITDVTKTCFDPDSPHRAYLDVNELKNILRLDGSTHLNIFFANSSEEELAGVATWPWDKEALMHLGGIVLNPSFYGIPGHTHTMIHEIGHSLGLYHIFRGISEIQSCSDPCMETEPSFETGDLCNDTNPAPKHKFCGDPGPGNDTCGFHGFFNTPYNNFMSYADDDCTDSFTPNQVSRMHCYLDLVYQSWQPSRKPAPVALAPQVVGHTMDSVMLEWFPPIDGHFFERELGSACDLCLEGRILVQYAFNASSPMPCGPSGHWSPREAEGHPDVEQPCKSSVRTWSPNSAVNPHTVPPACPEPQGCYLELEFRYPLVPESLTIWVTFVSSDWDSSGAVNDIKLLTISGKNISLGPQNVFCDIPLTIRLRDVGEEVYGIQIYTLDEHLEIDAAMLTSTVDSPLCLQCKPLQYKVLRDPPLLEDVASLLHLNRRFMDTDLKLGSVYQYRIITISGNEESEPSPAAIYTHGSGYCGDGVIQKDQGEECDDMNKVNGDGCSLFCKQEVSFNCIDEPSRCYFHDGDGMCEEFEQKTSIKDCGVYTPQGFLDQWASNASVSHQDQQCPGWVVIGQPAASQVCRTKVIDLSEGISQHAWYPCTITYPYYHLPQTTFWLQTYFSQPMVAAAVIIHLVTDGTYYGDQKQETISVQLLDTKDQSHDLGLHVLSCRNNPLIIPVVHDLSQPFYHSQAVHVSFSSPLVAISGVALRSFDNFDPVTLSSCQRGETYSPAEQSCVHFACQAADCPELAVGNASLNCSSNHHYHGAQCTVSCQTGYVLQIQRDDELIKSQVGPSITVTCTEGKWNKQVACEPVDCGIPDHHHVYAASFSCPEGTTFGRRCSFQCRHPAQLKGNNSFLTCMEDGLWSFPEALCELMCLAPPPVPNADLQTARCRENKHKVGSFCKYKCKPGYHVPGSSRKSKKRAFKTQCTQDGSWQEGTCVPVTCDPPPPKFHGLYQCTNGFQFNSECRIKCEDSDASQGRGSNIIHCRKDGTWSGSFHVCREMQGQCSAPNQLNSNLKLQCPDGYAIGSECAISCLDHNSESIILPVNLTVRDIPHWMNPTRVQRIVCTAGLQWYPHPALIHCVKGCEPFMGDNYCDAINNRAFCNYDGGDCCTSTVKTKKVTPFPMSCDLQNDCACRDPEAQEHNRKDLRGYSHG
T4 sequence (A0A2K5WE98 entry or part of it): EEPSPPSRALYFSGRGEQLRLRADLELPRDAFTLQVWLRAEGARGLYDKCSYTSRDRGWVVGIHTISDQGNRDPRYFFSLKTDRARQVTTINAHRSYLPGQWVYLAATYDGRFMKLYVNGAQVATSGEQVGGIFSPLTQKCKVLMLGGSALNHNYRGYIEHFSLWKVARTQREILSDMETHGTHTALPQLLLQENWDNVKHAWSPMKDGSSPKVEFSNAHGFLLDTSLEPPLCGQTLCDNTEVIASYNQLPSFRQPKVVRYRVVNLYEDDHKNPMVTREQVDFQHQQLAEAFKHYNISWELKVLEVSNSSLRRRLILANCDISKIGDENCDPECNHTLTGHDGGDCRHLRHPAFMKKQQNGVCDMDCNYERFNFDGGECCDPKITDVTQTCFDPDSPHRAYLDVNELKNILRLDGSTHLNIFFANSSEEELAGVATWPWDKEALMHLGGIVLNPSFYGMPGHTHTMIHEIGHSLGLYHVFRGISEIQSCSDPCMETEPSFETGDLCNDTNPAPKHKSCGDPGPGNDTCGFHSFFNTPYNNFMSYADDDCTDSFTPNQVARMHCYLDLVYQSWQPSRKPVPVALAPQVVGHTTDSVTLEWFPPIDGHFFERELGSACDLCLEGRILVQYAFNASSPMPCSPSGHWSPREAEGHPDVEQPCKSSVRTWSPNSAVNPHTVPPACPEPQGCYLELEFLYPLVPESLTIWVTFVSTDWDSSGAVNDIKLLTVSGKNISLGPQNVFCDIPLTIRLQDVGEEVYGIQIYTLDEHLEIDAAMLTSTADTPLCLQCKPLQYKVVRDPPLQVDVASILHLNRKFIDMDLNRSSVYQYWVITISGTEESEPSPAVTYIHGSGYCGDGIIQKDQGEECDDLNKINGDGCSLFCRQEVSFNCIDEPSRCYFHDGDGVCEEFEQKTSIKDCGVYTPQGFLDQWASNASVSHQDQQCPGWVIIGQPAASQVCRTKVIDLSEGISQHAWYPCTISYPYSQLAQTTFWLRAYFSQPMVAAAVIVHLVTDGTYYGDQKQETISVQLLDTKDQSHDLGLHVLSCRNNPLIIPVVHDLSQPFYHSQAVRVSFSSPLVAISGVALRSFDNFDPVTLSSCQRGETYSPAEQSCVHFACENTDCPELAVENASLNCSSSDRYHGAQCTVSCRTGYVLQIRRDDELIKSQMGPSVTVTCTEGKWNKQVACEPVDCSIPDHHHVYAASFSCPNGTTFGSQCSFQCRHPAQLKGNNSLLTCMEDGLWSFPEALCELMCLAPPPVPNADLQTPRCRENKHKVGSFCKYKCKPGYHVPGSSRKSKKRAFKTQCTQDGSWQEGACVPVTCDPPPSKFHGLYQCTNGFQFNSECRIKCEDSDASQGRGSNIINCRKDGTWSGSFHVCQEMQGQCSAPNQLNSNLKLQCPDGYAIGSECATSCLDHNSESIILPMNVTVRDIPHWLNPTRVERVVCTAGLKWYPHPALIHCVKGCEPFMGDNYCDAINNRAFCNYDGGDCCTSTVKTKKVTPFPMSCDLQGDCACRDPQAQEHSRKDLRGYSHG

B1: TPP-12681 (antibody, human IgG1, kappa, V domains shown)
VH: EVQLVQSGAEVKKPGESLKISCKGSGYSFTSYWTGWVRQAPGKGLEWMGIIYPGGSVARYSPSFQGQVTISADKSISTAYLQWSSLKASDTAVYYCARGPLRSDYPDVWGQGTMVTVSS
VL: EIVMTQSPATLSVSPGERATLSCRASQSVGSYLAWYQQKPGQAPRLLIYRGSTRATGIPARFSGSGSGTEFTLTISSLQSEDFAVYYCQQPYVWPITFGGGTKVEIKR
PAPP-A cleavage of IGFBP-4 Mean pIC50 [1]: 10.1 pIC50 | EC50 (read off the curve) [2]: ~100 pM | rec. Mouse PAPP-A IGFBP4 pIC50 (G-401 pAKT assay) (recombinant mouse PAPPA [3]): 9.51 pIC50 | A549 cells endogenous human PAPP-A pIC50 (A549 pAKT assay) [4]: 9.7 pIC50 | rec. Human PAPP-A IGFBP4 pIC50 (G-401 pAKT assay) [5]: 9.57 pIC50 | rec. Human PAPP-A IGFBP5 pIC50 (G-401 pAKT assay) [5]: 9.68 pIC50 | rec. Cyno PAPP-A IGFBP4 pIC50 (G-401 pAKT assay) [6]: 9.46 pIC50

B3: TPP-12744 (antibody, human IgG1, kappa, V domains shown)
VH: QVQLVQSGAEVKKPGASVKVSCKASGYTFTSYAMHWVRQAPGQRLEWMGWMNAGTGATKSSQKFQGRVTITRDTSASTAYMELSSLRSEDTAVYYCARGPSMETPTTFGMDVWGQGTTVTVSS
VL: DIQMTQSPSSVSASVGDRVTITCRASQGISRWLAWYQQKPGKAPKLLIYAASSLQSGVPSRFSGSGSGTDFTLTISSLQPEDFATYYCQQENAYPFTFGGGTKVEIKR
notes: human IgG1/kappa, Fc-disabled (L235A, G237A)
PAPP-A cleavage of IGFBP-5 Mean pIC50 [7]: 10.7 pIC50 | PAPP-A cleavage of IGFBP-4 Mean pIC50 [1]: 10 pIC50 | Kd [8]: 127 pM | koff [8]: 0.000319 s⁻¹ | kon [8]: 2.51e+06 M⁻¹ s⁻¹ | Kd [9]: 210 pM | koff [9]: 0.000393 s⁻¹ | kon [9]: 1.87e+06 M⁻¹ s⁻¹ | Kd [10]: 161 pM | koff [10]: 0.000433 s⁻¹ | kon [10]: 2.68e+06 M⁻¹ s⁻¹ | EC50 (read off the curve) [2]: ~1000 pM | EC50, increase of intact IGFBP4 in A549 cell supernatant (ELISA) [11]: 800 pM | EC50, increase of intact IGFBP4 in ADPKD patient derived cystic 9-7 cells (ELISA) [11]: 400 pM | IC50, decrease of IGFBP4-Ct fragments in 9-7 cells (ELISA) [11]: 20 pM | IC50, decrease of IGFBP4-Ct fragments in A549 cell supernatant (ELISA) [11]: 800 pM | IC50, decrease of free-IGF-1 in A549 cell supernatant (ELISA) [11]: 30 pM | pEC50, increase of intact IGFBP4 in 9-7 cells (ELISA) [11]: 9.41 pEC50 | pEC50, increase of intact IGFBP4 in A549 cell supernatant (ELISA) [11]: 9.09 pEC50 | pIC50, decrease of IGFBP4-Ct fragments in 9-7 cells (ELISA) [11]: 10.6 pIC50 | pIC50, decrease of IGFBP4-Ct fragments in A549 cell supernatant (ELISA) [11]: 9.07 pIC50 | pIC50, decrease of free-IGF-1 in A549 cell supernatant (ELISA) [11]: 10.5 pIC50 | IC50, PAPPA-mediated cleavage of human IGFBP2, cell-free, Western blot [12]: 1390 pM | binding result (recombinant mouse PAPPA [13]): no binding | binding result (rat PAPPA): no binding | A549 cells endogenous human PAPP-A pIC50 (A549 pAKT assay) [4]: 9.49 pIC50 | rec. Human PAPP-A IGFBP4 pIC50 (G-401 pAKT assay) [5]: 9.46 pIC50 | rec. Human PAPP-A IGFBP5 pIC50 (G-401 pAKT assay) [5]: 9.81 pIC50 | rec. Cyno PAPP-A IGFBP4 pIC50 (G-401 pAKT assay) [6]: 9.56 pIC50

B7: TPP-12683 (antibody, human IgG1, kappa, V domains shown)
VH: QLQLQESGPGLVKPSETLSLTCTVSGGSISSSSYNWGWIRQPPGKGLEWIGSISSSGSTYFNPSLKSRVTISVDTSKNQFSLKLSSVTAADTAVYYCARSGYRPSFYAMDAWGQGTTVTVSS
VL: DIQLTQSPSSVSASVGDRVTITCRASQDISYWLAWYQQKPGKAPKLLIYAASSLQSGVPSRFSGSGSGTDFTLTISSLQPEDFATYYCQQAYLLHTFGGGTKVEIKR
PAPP-A cleavage of IGFBP-5 Mean pIC50 [7]: 8.69 pIC50 | PAPP-A cleavage of IGFBP-4 Mean pIC50 [1]: 8.8 pIC50 | rec. Mouse PAPP-A IGFBP4 pIC50 (G-401 pAKT assay) (recombinant mouse PAPPA [3]): 8.88 pIC50 | A549 cells endogenous human PAPP-A pIC50 (A549 pAKT assay) [4]: 8.44 pIC50 | rec. Human PAPP-A IGFBP4 pIC50 (G-401 pAKT assay) [5]: 8.84 pIC50 | rec. Human PAPP-A IGFBP5 pIC50 (G-401 pAKT assay) [5]: 8.81 pIC50 | rec. Cyno PAPP-A IGFBP4 pIC50 (G-401 pAKT assay) [6]: 8.48 pIC50

Results, then the binder that gave them:

PAPP-A cleavage of IGFBP-5 Mean pIC50 [7]: 10.4 pIC50 | PAPP-A cleavage of IGFBP-4 Mean pIC50 [1]: 10 pIC50 | A549 cells endogenous human PAPP-A pIC50 (A549 pAKT assay) [4]: 9.76 pIC50 | rec. Human PAPP-A IGFBP4 pIC50 (G-401 pAKT assay) [5]: 9.36 pIC50 | rec. Human PAPP-A IGFBP5 pIC50 (G-401 pAKT assay) [5]: 9.66 pIC50 | rec. Cyno PAPP-A IGFBP4 pIC50 (G-401 pAKT assay) [6]: 10 pIC50
B2: TPP-12743 (antibody, human IgG1, kappa, V domains shown)
VH: QVQLVQSGAEVKKPGASVKVSCKASGYTFTSYAMHWVRQAPGQRLEWMGWMNAGTGATKSSQKFQGRVTITRDTSASTAYMELSSLRSEDTAVYYCARGPSLETPTTFGMDVWGQGTTVTVSS
VL: DIQMTQSPSSVSASVGDRVTITCRASQGISRWLAWYQQKPGKAPKLLIYAASSLQSGVPSRFSGSGSGTDFTLTISSLQPEDFATYYCQQENAYPFTFGGGTKVEIKR

PAPP-A cleavage of IGFBP-5 Mean pIC50 [7]: 9.78 pIC50 | PAPP-A cleavage of IGFBP-4 Mean pIC50 [1]: 9.53 pIC50 | A549 cells endogenous human PAPP-A pIC50 (A549 pAKT assay) [4]: 8.92 pIC50 | rec. Human PAPP-A IGFBP4 pIC50 (G-401 pAKT assay) [5]: 9.18 pIC50 | rec. Human PAPP-A IGFBP5 pIC50 (G-401 pAKT assay) [5]: 9.35 pIC50 | rec. Cyno PAPP-A IGFBP4 pIC50 (G-401 pAKT assay) [6]: 9.23 pIC50
B4: TPP-12792 (antibody, human IgG1, kappa, V domains shown)
VH: QLQLQESGPGLVKPSETLSLTCTVSGGSISSSDYYWGWIRQPPGKGLEWIGSIFYSGSTYYNPSLKSRVTISVDTSKNQFSLKLSSVTAADTAVYYCARATTSSSADYWGQGTLVTVSS
VL: DIQMTQSPSSVSASVGDRVTITCRASQGISRWLAWYQQKPGKAPKLLIYAASSVQSGVPSRFSGSGSGTDFTLTISSLQPEDFATYYCQQGNVPPLTFGGGTKVEIKR

PAPP-A cleavage of IGFBP-5 Mean pIC50 [7]: 9.1 pIC50 | PAPP-A cleavage of IGFBP-4 Mean pIC50 [1]: 8.96 pIC50 | A549 cells endogenous human PAPP-A pIC50 (A549 pAKT assay) [4]: 9.33 pIC50 | rec. Human PAPP-A IGFBP4 pIC50 (G-401 pAKT assay) [5]: 9.22 pIC50 | rec. Human PAPP-A IGFBP5 pIC50 (G-401 pAKT assay) [5]: 9.05 pIC50 | rec. Cyno PAPP-A IGFBP4 pIC50 (G-401 pAKT assay) [6]: 9.76 pIC50
B5: TPP-12801 (antibody, human IgG1, kappa, V domains shown)
VH: QLQLQESGPGLVKPSETLSLTCTVSGGSISSSDYYWGWIRQPPGKGLEWIGSIFYSGSTYYNPSLKSRVTISVDTSKNQFSLKLSSVTAADTAVYYCARATTSSSADYWGQGTLVTVSS
VL: DIQMTQSPSSVSASVGDRVTITCRASQGVSRWLAWYQQKPGKAPKLLIYAASSLQSGVPSRFSGSGSGTDFTLTISSLQPEDFATYYCQQGNVPPLTFGGGTKVEIKR

PAPP-A cleavage of IGFBP-5 Mean pIC50 [7]: 9.1 pIC50 | PAPP-A cleavage of IGFBP-4 Mean pIC50 [1]: 10.5 pIC50 | rec. Mouse PAPP-A IGFBP4 pIC50 (G-401 pAKT assay) (recombinant mouse PAPPA [3]): 9.28 pIC50 | A549 cells endogenous human PAPP-A pIC50 (A549 pAKT assay) [4]: 9.5 pIC50 | rec. Human PAPP-A IGFBP4 pIC50 (G-401 pAKT assay) [5]: 9.45 pIC50 | rec. Human PAPP-A IGFBP5 pIC50 (G-401 pAKT assay) [5]: 9.04 pIC50 | rec. Cyno PAPP-A IGFBP4 pIC50 (G-401 pAKT assay) [6]: 9.85 pIC50
B6: TPP-12821 (antibody, human IgG1, kappa, V domains shown)
VH: EVQLVQSGAEVKKPGESLKISCKGSGYSFTSDWIGWVRQAPGKGLEWMGIIYPGGSDTRYSPSFRGQVTISADKSISTAYLQWSSLKASDTAVYYCARGPLRSDYVDVWGQGTMVTVSS
VL: EIVMTQSPATLSVSPGERATLSCRASQSVGSNLAWYQQKPGQAPRLLIYRASTRATGIPARFSGSGSGTEFTLTISSLQSEDFAVYYCQQPYVWPITFGGGTKVEIKR

PAPP-A cleavage of IGFBP-5 Mean pIC50 [7]: 11.1 pIC50 | PAPP-A cleavage of IGFBP-4 Mean pIC50 [1]: 10.2 pIC50 | A549 cells endogenous human PAPP-A pIC50 (A549 pAKT assay) [4]: 9.86 pIC50 | rec. Human PAPP-A IGFBP4 pIC50 (G-401 pAKT assay) [5]: 9.59 pIC50 | rec. Human PAPP-A IGFBP5 pIC50 (G-401 pAKT assay) [5]: 9.92 pIC50 | rec. Cyno PAPP-A IGFBP4 pIC50 (G-401 pAKT assay) [6]: 9.7 pIC50
B8: TPP-12708 (antibody, human IgG1, kappa, V domains shown)
VH: QVQLVQSGAEVKKPGASVKVSCKASGYTFTSYAMHWVRQAPGQRLEWMGWINAGTGATKYARKFQGRVTITRDTSASTAYMELSSLRSEDTAVYYCARGPSMETPTTYGMEVWGQGTTVTVSS
VL: DIQMTQSPSSVSASVGDRVTITCRASQGISRWLAWYQQKPGKAPKLLIYSTSSLQLGVPSRFSGSGSGTDFTLTISSLQPEDFATYYCQQENDYPFTFGGGTKVEIKR
